Assay results taken from US7037663B2, “Human zona pellucida protein 3 and uses thereof” (Eastern Virginia Medical School, priority 1998, dated 2006).
Like-named read-outs stand apart in the source and are kept apart here.

What was measured:
human sperm = experiment: Acrosome reaction of capacitated sperm by FITC/PSA with Hoechst 33258 viability stain, first series; format: cell-based
Experimental: The purified rhZP3 was also applied to test its activity to induce human sperm acrosome reaction. The motile sperm obtained by swim-up procedure were allowed to capacitate in HTF/0.5% HSA for four hours at 37° C. in 5% CO2 in huminified air. The motile sperm concentration used to detect acrosome reaction was set at 2 million/ml. A series of 100 ul of capacitated sperm aliquots with different inducers were prepared in Eppendorf vials and cultured in the incubator in 95% air, 5% CO2, at 37° C. for 30 minutes. The test was conducted as follows: positive control: calcium ionophore A23187 (Sigma) at 5 μM; negative controls: 1) sperm culture medium alone, and 2) protein isolated from the culture media of non-transfected PA-1 cells (NT); test: rhZP3. Triple slides were made for each assay. Hoechst 33258 stain was used for determination of sperm viability. Fluorescein isothiocyanate conjugated Pisum sativum agglutinin (FITC/PSA) (Sigma) staining technique was employed to evaluate the acrosome reaction (Cross et al, 1986). Blind reading was required for evaluation and at least 100˜200 cells from 5 random fields were evaluated per spot on the slide. […] The results were expressed as percentage of acrosome-reacted spermatozoa in the total population counted (Cross, 1986).
In some experiments, Solubilized zona pellucida were used as control to test its function to induce sperm acrosome reaction. The solubilized zona pellucida were prepared according to Franken et al (1996). Ooplasma was removed using a small glass micropipette. A vigorous pipetting action would break their zona causing ooplasma to be spilled into surrounding medium. The chosen amount of zonae was transferred into an eppendorf tube and was centrifuged for 15 minutes at 300×g. Using a steromicroscope, the media were removed with pipette, making sure not to disturb zona. The final result was to remove maximum medium. A chosen volume (depending on the zona concentration needed) of 10 mM HCl was added. Under the microscopic vision, zona/HCl was pipetted up and down until all zona were dissolved. Then 10 mM NaOH of equal volume as the HCl was added and mixed well to obtain the stock zona solution.

[1] = system: sperm-zona pellucida binding; experiment: Competitive hemizona assay (HZA), second series; format: cell-based, human
Experimental: Measurement of sperm-zona pellucida binding-Salt-stored, immature (prophase I) human oocytes were used in the experiments. Oocytes were desalted and microbisected into matching halves (hemizonae) using a micromanipulator (Narishige, Tokyo, Japan) following techniques published elsewhere (10, 11, 19). Control and test sperm droplets (100 μl each of a final dilution of 0.5×10^6 motile sperm/ml 1 hour post-swim-up) were incubated separately under heavy mineral oil (Sigma) with a hemizona from the same matching pair for 4 hours at 37° C. in 5% CO2 in humidified air. After the co-incubation period, the hemizonae were washed to remove loosely attached sperm using a finely drawn glass pipette, and the sperm tightly bound to the outer zona surface were counted under phase microscopy (×200). The hemizona assay index (HZI) was calculated as follows: # of sperm bound for test sample/# of sperm bound for control sample×100. An HZI of 100 indicates no inhibition whereas an HZI of 0 reflects complete inhibition of binding.
Swim up sperm were incubated with rhZP3 (test, at a final concentration of 0, 10, 30, 100, 250, 500 or 2,000 ng/ml of protein) or in culture medium (control) for 30 min under identical conditions. After 30 min, a hemizona was added to the test sperm droplet whereas the matching hemizona from the same pair was added to the control sperm droplet. Three pairs of matching hemizonae were tested per rhZP3 concentration per semen sample in a total of three ejaculates from different donors.
Additional competitive HZAs were performed where the test sperm droplet (rhZP3) was assessed against control sperm droplets of culture medium from non-transfected PA-1 cells (NT). Also, competitive HZAs were carried out where the test sperm droplet (culture medium from non-transfected PA-1 cells, NT) was assayed against sperm culture medium. Three pairs of matching hemizonae were tested per dose per experiment in a total of three different ejaculates. These studies were carried out in order to examine the specificity of the effect of the rhZP3.

[2] = Aggregation of purified glycoprotein on freezing; format: physicochemical; settings: freezing the purified product
Text: In the zona pellucida, ZP3 associates with ZP2 and ZP1 to form a network structure (Wassarman, 1988). This network structure prevents aggregation of these glycoproteins. However, in solution these glycoproteins tend to aggregate together. This phenomenon has been observed in several recombinant glycoproteins, including ZP3 (Champan and Barratt, 1997). In purifying rhZP3, we have avoided this problem by obtaining a highly purified product, and testing its biological activities within a week-period while maintaining the protein at 4° C. […] This problem becomes worse as larger amounts of the glycoprotein are trying to be produced. Different strategies are being looked into in order to produce and purify large amounts of biologically active rhZP3 in our laboratory.

concentration range of highest (maximal) inhibition of binding [1]: 500 to 2000 ng/mL
minimally effective dose, inhibition of binding under HZA conditions ([1]; 30 min pre-incubation): 30 ng/mL
highest inhibition of binding ([1]; in the range of 500-2,000 ng/ml): approximately 70%
concentration range of highest (maximal) inhibition of binding ([1]; listed as Recombinant hZP3): 500-2,000 ng/ml
HZI (Hemizona index) ([1]; test reagent 30 ng/mL versus 30 ng/mL NT): 44.5 ± 3.6
HZI (Hemizona index) ([1]; test reagent 30 ng/mL versus Ham's F-10/0.5% HSA): 43.6 ± 3.3
HZI (Hemizona index) ([1]; test reagent 500 ng/mL versus 500 ng/mL NT): 41.8 ± 1.9
HZI (Hemizona index) ([1]; test reagent 500 ng/mL versus Ham's F-10-0.5% HSA): 38.0 ± 2.7
B1: rhZP3: recombinant human zona pellucida protein 3 with six-histidine tail, expressed in human ovarian PA-1 cells; secreted glycoprotein of approximately 65 Kd (protein)
chain: QPLWLLQGGASHPETSVQPVLVECQEATLMVMVSKDLFGTGKLIRAADLTLGPEACEPLVSMDTEDVVRFEVGLHECGNSMQVTDDALVYSTFLLHDPRPVGNLSIVRTNRAEIPIECRYPRQGNVSSQAILPTWLPFRTTVFSEEKLTFSLRLMEENWNAEKRSPTFHLGDAAHLQAEIHTGSHVPLRLFVDHCVATPTPDQNASPYHTIVDFHGCLVDGLTDASSAFKVPRPGPDTLQFTVDVFHFANDSRNMIYITCHLKVTLAEQDPDELNKACSFSKPSNSWFPVEGSADICQCCNKGDCGTPSHSRRQPHVMSQWSRSASRNHHHHHH
increase of the percentage of acrosome-reacted sperm from control conditions (human sperm; 30 ng/ml, 30 minutes pre-incubation): 150%
% acrosome reacted-sperm (human sperm; NT 30 ng/ml, calcium ionophore 5 μM, rhZP3 30 ng/ml, solubilized zona 0.5 ZP/μl, 4 h capacitation, 30 min, mean (± SEM)): 18.3%
aggregation on freezing (in words) [2]: problems of aggregation of the glycoprotein as we attempted freezing the product
